Literature values as cited in PMC4888498.

Tests used:
[1] = molecular target: T1, TvFL3 Thermoplasma volcanium (Thermoplasma volcanium GSS1) (UniProt Q979L0); assay: EMSA
T1 sequence: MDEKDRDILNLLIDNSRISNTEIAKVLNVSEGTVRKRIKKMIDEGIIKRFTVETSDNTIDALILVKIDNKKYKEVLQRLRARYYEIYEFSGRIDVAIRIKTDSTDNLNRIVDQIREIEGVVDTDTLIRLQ

[2] = molecular target: T2, Ss-LrpB Sulfolobus solfataricus (Saccharolobus solfataricus P2) (UniProt Q7LX67); assay: EMSA
T2 sequence: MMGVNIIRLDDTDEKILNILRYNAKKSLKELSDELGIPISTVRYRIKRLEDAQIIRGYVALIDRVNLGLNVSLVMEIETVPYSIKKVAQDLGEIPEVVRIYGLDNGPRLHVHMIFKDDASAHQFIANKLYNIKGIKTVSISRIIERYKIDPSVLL

GAAATTAATACGACTCACTATGGGGAGAGAGACGGACGAAATTCGTCCCTGTGTGTCGCTAGTTATTGCTCAGCGGTGG (double strand) [19468044-FFRP-2]
Ka [1]: 9e+06 M⁻¹

GAAATTAATACGACTCACTATGGGGAGAGAGACGGTCGAAATTCGACCCTGTGTGTCGCTAGTTATTGCTCAGCGGTGG (double strand) [19468044-FFRP-4]
Ka [1]: 7.3e+06 M⁻¹

GAAATTAATACGACTCACTATGGGGAGAGAGACGTACGAAATTCGTACCTGTGTGTCGCTAGTTATTGCTCAGCGGTGG (double strand) [19468044-FFRP-1]
Ka [1]: 1.28e+07 M⁻¹

GAAATTAATACGACTCACTATGGGGAGAGAGACGTTCGAAATTCGAACCTGTGTGTCGCTAGTTATTGCTCAGCGGTGG (double strand) [19468044-FFRP-3]
Ka [1]: 8.2e+06 M⁻¹

GAAATTAATACGACTCACTATGGGGAGAGAGACTTGCAAAATTTGCAACTGTGTGTCGCTAGTTATTGCTCAGCGGTGG (double strand) [19468044-FFRP-7]
Ka [2]: 3.5e+07 M⁻¹
